The target of this experiment is Hsp104ΔM (yeast) (UniProt P31539). The experiment can be described thus: SEC.

Data on 1 substance can be found in PMC2938849.

What is called stoichiometry N is the number of molecules, sites or subunits per partner or assembly.

In the case of “Hsp104ΔM (from UniProt P31539 1-908) (natural protein)”, the stoichiometry N was found to be 6.
